Laboratory results as given in the supplement of paper PMC9170038.

Test system: MS2 coat protein
Experiment: apparent KD of MS2 coat protein; designed switch direction (-1 OFF switch, 1 ON switch): -1; higher = weaker reporter binding
How it was run: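 Designed RNA switches with common flanks were made on Illumina chips by stalled E. coli RNA polymerase. Titration with SNAP-549-labelled MS2 coat protein doubled from 0.7 or 1.5 nM up to 3 µM. Apparent KD is each design's median over clusters after curve-fitting normalised fluorescence.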

[1] = Eterna round: R95, input ligand: FMN 200 uM
[2] = Eterna round: R95, input ligand: microRNA oligo, concentration not stated
[3] = Eterna round: R95, input ligand: none
[4] = input ligand: microRNA oligo, concentration not stated

| Sequence | apparent KD of MS2 coat protein (input ligand: FMN 200 uM) [nM] | apparent KD of MS2 coat protein (input ligand: none) [nM] | apparent KD of MS2 coat protein [1] [nM] | apparent KD of MS2 coat protein [2] [nM] | apparent KD of MS2 coat protein [3] [nM] | apparent KD of MS2 coat protein [4] [nM] |
| --- | --- | --- | --- | --- | --- | --- |
| AAAUAGCUAGAGGAUAUCGGAUAGAAUUUAUUACGAGAAGGUUAGACAUGAGGAUCACCCAUGUUCUGUUGGGA [EX6 #22] (Eterna round: R97, puzzle: Exclusion 6) | 70 | 33.8 | – | – | – | – |
| GAGAACGUAGGAUAUACAUGAGGAUCACCCAUGUGAGGAAGGAGUAGGAAGCGUGGAAGUAGAAGGACGGAGAG [JR_Exclu3_Sub073] (puzzle: Exclusion 3) | – | – | 57.6 | 40.6 | 24.5 | – |
| AUUAUAUAGGUAGGAUAUAGAAUAUUAUUUUAACAUGAGGAUCACCCAUGUAACCUUAUGUGUAGCUAGAAGGACCAUUUAUUA [Title] (Eterna round: R96, puzzle: Exclusion NG 2) | – | – | – | – | – | 64.6 |
| GUCUAGAGAGGAUAUAUUUACAGUGUACGUCGGAUGAUUGCACUUGAGGAUCACCCAAGUAGAAGGCUCGAGGG [EX2 #32] (Eterna round: R97, puzzle: Exclusion 2) | 457 | 303 | – | – | – | – |
| CCGCAAAUGGAGGAUAUCGUAUCGGAGACGAUACGAGAAGGCCAAACAUGAGGAUCACCCAUGUGUCCUAGCGG [Mat - Exclusion 6 - Eli Mod - D102] (puzzle: Exclusion 6) | – | – | 29.3 | 15.1 | 16 | – |
| AAGUACCGUCACGAUAGUGAUGGUACAACAAGCAUGUAAACAUGAGGAUCACCCAUGUCCUCGAAUGCUCGUCUUAU [Sensor 3 - 66] (puzzle: Sensor v3, turn-off variant 2) | – | – | 554 | 772 | 519 | – |
| ACACAAGCCCUUUGCUCGUUUUAAUACAGCGGGCUCUUCACAUGAGGAUCACCCAUGUAGGCCUUGUUCCAAGGCCG [Rebileve] (puzzle: Sensor v3, turn-off variant 2) | – | – | 20.4 | 23.6 | 20 | – |
| CUGUACAUAGGAUAUAGUUGUUUUUACAUGAGGAUCACCCAUGUUACUCCUCUCUCUCUUCUAGAAGGAUGUUUUU [JR_E5_Sub007] (puzzle: Exclusion 5) | – | – | – | 78.1 | – | – |
| UUUCUCUGGGCGUCUUCUUACAUGAGGAUCACCCAUGUUUCAUAGGAUAUGCUAUAGUGUUACAUGCAGAAGGAUGUUUGUUUU [JR_ExcNG3_Sub080] (Eterna round: R96, puzzle: Exclusion NG 3) | – | – | – | – | – | 189 |
| AAUACAAGUAAGAUCCUAAACAUGAGGAUCACCCAUGUGCUCGUCUUAUAAAGUACUAUCACGAAAGUGAUAGUACA [Sensor 3, v1 - 66] (puzzle: Sensor v3, turn-off variant 1) | – | – | 48.7 | 314 | 37.5 | – |
| CCAAACAGAGGAUAUGCGAAUAAAUAAAACUUUUUUUUUUAACAUGAGGAUCACCCAUGUAGAAGGCUGCAACC [Ex2 #40] (Eterna round: R97, puzzle: Exclusion 2) | 24.4 | 19.5 | – | – | – | – |
| UCAGUGUUAGGAUAUCGAGCAAGUUGAAUAUUUGUCUGUAUCGAGAAGGGACAUGAGGAUCACCCAUGUGAGGC [Eternabot (L1) Solution 65] (Eterna round: R97, puzzle: Exclusion 4) | 245 | 69.9 | – | – | – | – |
| CGAAUUAUAGGAUAUACAUGAGGAUCACCCAUGUAACCGUGACUGGGAUGCGUCUCAAGUAGAAGGAUAGGCGC [Eternabot (L1) Solution 9] (Eterna round: R97, puzzle: Exclusion 3) | 27.2 | 14.3 | – | – | – | – |
| GUAACAUGCUGGUGAUCAUACAUGAGGAUCACCCAUGUAACAAGCUUUUUGCUCGUCUUAUAAGAUUACUAGUAUGU [Stov1/10-A3] (Eterna round: R97, puzzle: Sensor, turn-off variant 1) | 22 | 24.3 | – | – | – | – |
| UUUUGCACGCUGCGGUCCUACAUGAGGAUCACCCAUGUGGUCUGGUGGCGUGGGUCGCCGGACUUGGCUCGUCUUGU [salish99_S_TOV1_R5_036] (Eterna round: R97, puzzle: Sensor, turn-off variant 1) | 19 | 19.1 | – | – | – | – |
| UACUAAAAGGAGGAUAUCGUAUCGGAGACGAUACGAGAAGGCUUAACAUGAGGAUCACCCAUGUUCUUCAAUAU [Mat - Exclusion 6 - Eli Mod - D96] (puzzle: Exclusion 6) | – | – | – | 14.8 | – | – |
| GGUCAAGAACAGAACCGCGCUGCCAUUGACCGCUCAUUUACAUGAGGAUCACCCAUGUUUUUUGCUUGUCUUGUUAC [Beusdieson] (puzzle: Sensor v3, turn-off variant 2) | – | – | 16.2 | 89.9 | 18.7 | – |
| GGUCGUAGACAGGAUAUGCGGCAAAGAAACAAAGCAGAAGGGUCUACUUGAGGAUCACCCAAGUGGGCGGUUAA [Atrele] (Eterna round: R97, puzzle: Exclusion 6) | 153 | 20.4 | – | – | – | – |

| Sequence | apparent KD of MS2 coat protein (input ligand: FMN 200 uM) [nM] | apparent KD of MS2 coat protein (input ligand: none) [nM] | apparent KD of MS2 coat protein [1] [nM] | apparent KD of MS2 coat protein [2] [nM] | apparent KD of MS2 coat protein [3] [nM] | apparent KD of MS2 coat protein [4] [nM] |
| --- | --- | --- | --- | --- | --- | --- |
| UUUUAGAGAGGAUAUAUAUUUUAAAACAUGAGGAUCACCCAUGUAAUUUUAUGGGAGUAAAUAGAAGGCUCAUUUA [JMFs Solution 3] (puzzle: Exclusion 5) | – | – | 48.7 | 51 | 56.3 | – |
| AAAUCGGUAGAGGAUAUUGUACAGGAAACGGUGCAAGAAGGUUACACAUGAGGAUCACCCAUGUUAAAUUGCGA [EX6 #52] (Eterna round: R97, puzzle: Exclusion 6) | 21.4 | 17.3 | – | – | – | – |
| CGAUAUAAGUCAGGAUAUGAGCGCAACUGACGAUCAGAAGGGACACAUGAGGAUCACCCAUGUGAUUUAUCAAUAUUAUACAUC [Prohibition 91 - Jieux - Exclusion NG 1] (Eterna round: R96, puzzle: Exclusion NG 1) | 36.5 | 31.6 | – | – | – | 27.3 |
| GCACCGCGAGGAUAUACAUGAGGAUCACCCAUGUGUCCGCAGCGAUGUGUGUACAAAUGUAGAAGGCGCGUAAA [EX3 #60] (Eterna round: R97, puzzle: Exclusion 3) | 21.5 | 12.1 | – | – | – | – |
| UUUAAUUUAAUUAAGAUCACAUGAGGAUCACCCAUGUAAUUAUAGGAUAUCAGCUCGUUUAGAGCUGAGAAGGAUAAUUACAUA [ExNG3/5-A2] (Eterna round: R96, puzzle: Exclusion NG 3) | – | – | – | – | – | 23.8 |
| GCCGAAUAAGUGAGGAUAUACCUAUGGAUACAUAGGUAGAAGGCACAUGAGGAUCACCCAUGUACCUCAACGGC [JL-BMX4-4.16 Eli mod] (Eterna round: R97, puzzle: Brourd's mod of Exclusion 4) | 34.5 | 14.8 | – | – | – | – |
| UGGUCACAUGAGGAUCACCCAUGUCAGGAUAUCUACAUUGAAGCUUCGGCUUCAAUGUAGAGAAGGGAUAUAAU [E1/9-B1] (Eterna round: R97, puzzle: Exclusion 1) | 167 | 71.4 | – | – | – | – |
| GGAUCGAAUGUGAGGAUAUACCACUGGAUACAGUGGUAGAAGGCACAUGAGGAUCACCCAUGUCCUUACGAUCC [Fiskers BMX 4 - 47] (puzzle: Brourd's mod of Exclusion 4) | – | – | – | 74.2 | – | – |
| UACAUGAGGAUCACCCAUGUUUUGUCGUGUAUGGUAUUUAUCUAGGAUAUCGAUUUAUUUAACCACGAGAAGGAGAGUAUCAAU [MOD Solution 21 by JMF] (Eterna round: R96, puzzle: Exclusion NG 3) | 46.4 | 44.1 | – | – | – | 36.8 |
| UUUUUAUAUGAAGGAUAUACUUAACAUGAGGAUCACCCAUGUGGUGUUGUGAGUGAGUGAGUUUAGUAGAAGGUCAAUUCUCUU [JMF's solution 81] (Eterna round: R96, puzzle: Exclusion NG 2) | 989 | 492 | – | – | – | 156 |
| UAUAAAGGCUCAGGAUAUGGUGCGUCACAUGAGGAUCACCCAUGUAACGUGGCGGAACCUGCGCGCUAGAAGGGAGUAGCGAAA [Laensoqu] (Eterna round: R96, puzzle: Exclusion NG 2) | 8.44 | 10.7 | – | – | – | 8.05 |
| GAUUAUGCGAGCUUUAGGGACAUGAGGAUCACCCAUGUUCGUCUUAUUAAUCUGGGUACACUGACAUACCUAAAUCU [JMF 69] (puzzle: Sensor v3, turn-off variant 1) | – | – | 32.1 | 48.4 | 33.9 | – |
| UGUAACCGAGGAUAUACAUGAGGAUCACCCAUGUAAUGUAGUAUAGUGUAUGUAAGAUGUAGAAGGUGGGAUGU (Eterna round: R97, puzzle: Exclusion 3) | 40.2 | 45.7 | – | – | – | – |
| GGGCUGCGACGCAGCCAAACAAAACAUGAGGAUCACCCAUGUCAGGAUAUACCGAUGCAGCAUCUGUAGAAGGGACAGAUCCAA [Onlaorre] (Eterna round: R96, puzzle: Exclusion NG 3) | 145 | 73.3 | – | – | – | 63.5 |
| ACCGAACAUGAGGAUCACCCAUGUGAGGAUAUCCCGAGAUUAAAUGCCGCAAGAAGGCGGAGAAGGCGCAUGGG [Ditiesre] (puzzle: Exclusion 1) | – | – | 45.2 | 23.7 | 31.3 | – |
| UCUGGAGCAGGAUAUAUAUGACGUGCUUCGGCACGGUGAGUACAUGAGGAUCACCCAUGUAGAAGGGCUCCAGA [Exclusion 2 (Mod of Brourd's E2/9-D2)] (Eterna round: R97, puzzle: Exclusion 2) | 81.8 | 20.3 | – | – | – | – |
| ACACAGCAAGGAUAUACAUGAGGAUCACCCAUGUGGUGGCAGUUACGGUAGGACUAGUGUAGAAGGUGCAGUGG [EX3 #30] (Eterna round: R97, puzzle: Exclusion 3) | 487 | 668 | – | – | – | – |
